Reference: article PMC4278586 (Cell, 2014)

What was measured:
[1] = target: full-length gp120 monomer (HIV-1, isolate ; JRCSF as …, UniProt P20871); assay: ITC
[2] = target: full-length gp120 pre-complexed with CD4 (HIV-1, isolate  (JRCSF as …, UniProt P20871;P01730)); assay: ITC

B1: PGT124 Fab (Fab, V domains shown)
VH: QVQLQESGPGLVRPSETLSVTCIVSGGSISNYYWTWIRQSPGKGLEWIGYISDRETTTYNPSLNSRAVISRDTSKNQLSLQLRSVTTADTAIYFCATARRGQRIYGVVSFGEFFYYYYMDVWGKGTAVTVSS
VL: SYVSPLSVALGETARISCGRQALGSRAVQWYQHKPGQAPILLIYNNQDRPSGIPERFSGTPDINFGTTATLTISGVEVGDEADYYCHMWDSRSGFSWSFGGATRLTVL
- Kd [1]: 38 nM
- Kd [2]: 34 nM
